B1: IgG1-FAPα-FERL (antibody)
heavy: EVQLLESGGGLVQPGGSPRLSCEASGFTFSSYALSWVRQAPGKGLEWVSAISGSGGGRYYADSVKGRFTISRDNSKNTLFLQMNSLRAEDTAVYYCAKEGYSSSGTYWDHWGQGTLVTVSSASTKGPSVFPLAPSSKSTSGGTAALGCLVKDYFPEPVTVSWNSGALTSGVHTFPAVLQSSGLYSLSSVVTVPSSSLGTQTYICNVNHKPSNTKVDKRVEPKSCDKTHTCPPCPAPEFERGPSVFLFPPKPKDTLMISRTPEVTCVVVDVSHEDPEVKFNWYVDGVEVHNAKTKPREEQYNSTYRVVSVLTVLHQDWLNGKEYKCKVSNKALPAPIEKTISKAKGQPREPQVYTLPPSREEMTKNQVSLTCLVKGFYPSDIAVEWESNGQPENNYKTTPPVLDSDGSFLLYSKLTVDKSRWQQGNVFSCSVMHEALHNHYTQKSLSLSPG
light: AIQMTQSPSSVSASVGDRVTITCRASQGVSSWLAWYQQKPGRAPKLLIYVASTLQSGVPSRFSGSGSGTDFTLTINSLQPEDFATYYCQQANSFPPTFGQGTRLEMKRTVAAPSVFIFPPSDEQLKSGTASVVCLLNNFYPREAKVQWKVDNALQSGNSQESVTEQDSKDSTYSLSSTLTLSKADYEKHKVYACEVTHQGLSSPVTKSFNRGEC
notes: Bivalent monoclonal IgG1 kappa
B2: BisG1-b12-FERL/DR4-FERR (bispecific antibody, human IgG1, kappa, lambda)
heavy 1: QVQLVQSGAEVKKPGASVKVSCQASGYRFSNFVIHWVRQAPGQRFEWMGWINPYNGNKEFSAKFQDRVTFTADTSANTAYMELRSLRSADTAVYYCARVGPYSWDDSPQDNYYMDVWGKGTTVIVSSASTKGPSVFPLAPSSKSTSGGTAALGCLVKDYFPEPVTVSWNSGALTSGVHTFPAVLQSSGLYSLSSVVTVPSSSLGTQTYICNVNHKPSNTKVDKRVEPKSCDKTHTCPPCPAPEFERGPSVFLFPPKPKDTLMISRTPEVTCVVVDVSHEDPEVKFNWYVDGVEVHNAKTKPREEQYNSTYRVVSVLTVLHQDWLNGKEYKCKVSNKALPAPIEKTISKAKGQPREPQVYTLPPSREEMTKNQVSLTCLVKGFYPSDIAVEWESNGQPENNYKTTPPVLDSDGSFLLYSKLTVDKSRWQQGNVFSCSVMHEALHNHYTQKSLSLSPG
light 1: EIVLTQSPGTLSLSPGERATFSCRSSHSIRSRRVAWYQHKPGQAPRLVIHGVSNRASGISDRFSGSGSGTDFTLTITRVEPEDFALYYCQVYGASSYTFGQGTKLERKRTVAAPSVFIFPPSDEQLKSGTASVVCLLNNFYPREAKVQWKVDNALQSGNSQESVTEQDSKDSTYSLSSTLTLSKADYEKHKVYACEVTHQGLSSPVTKSFNRGEC
heavy 2: QVQLQESGPGLVKPSGTLSLTCAVSGGSISSYSWWSWIRQPPGKGLEWIGELYHSGSTNYNPSLKSRVTISVDKSKNQFSLKLRSVTAADTAVYYCVRGVATIDYWGQGTLVTVSSASTKGPSVFPLAPSSKSTSGGTAALGCLVKDYFPEPVTVSWNSGALTSGVHTFPAVLQSSGLYSLSSVVTVPSSSLGTQTYICNVNHKPSNTKVDKRVEPKSCDKTHTCPPCPAPEFERGPSVFLFPPKPKDTLMISRTPEVTCVVVDVSHEDPEVKFNWYVDGVEVHNAKTKPREEQYNSTYRVVSVLTVLHQDWLNGKEYKCKVSNKALPAPIEKTISKAKGQPREPQVYTLPPSREEMTKNQVSLTCLVKGFYPSDIAVEWESNGQPENNYKTTPPVLDSDGSFFLYSRLTVDKSRWQQGNVFSCSVMHEALHNHYTQKSLSLSPG
light 2: QSALTQPPSASGSPGQSVTISCTGTSSDVGGYNFVSWYQQDPGKAPKLLIYEVTKRPSGVPDRFSGSKSGNTASLTVSGLQAEDEADYYCSSYAGSNNVMFGGGTKLTVLGQPKAAPSVTLFPPSSEELQANKATLVCLISDFYPGAVTVAWKADSSPVKAGVETTTPSKQSNNKYAASSYLSLTPEQWKSHRSYSCQVTHEGSTVEKTVAPTECS
notes: Fab-arm exchange of IgG1-b12-FERL and IgG1-DR4-FERR; also called bsIgG1-ctrl-FERLxDR4-FERR
B3: IgG1-DR4-FERR (antibody, V domains shown)
VH: QVQLQESGPGLVKPSGTLSLTCAVSGGSISSYSWWSWIRQPPGKGLEWIGELYHSGSTNYNPSLKSRVTISVDKSKNQFSLKLRSVTAADTAVYYCVRGVATIDYWGQGTLVTVSS
VL: QSALTQPPSASGSPGQSVTISCTGTSSDVGGYNFVSWYQQDPGKAPKLLIYEVTKRPSGVPDRFSGSKSGNTASLTVSGLQAEDEADYYCSSYAGSNNVMFGGGTKLTVLG
notes: Bivalent monoclonal IgG1 lambda

What was measured:
[1] = target: T1, human FAPα (Fibroblast activation protein alpha), cell surface expressed (human, UniProt Q12884 1-760); assay: flow cytometry, human lung fibroblasts, n = 1
T1 construct: Endogenous on human lung fibroblasts and CAFs
T1 sequence: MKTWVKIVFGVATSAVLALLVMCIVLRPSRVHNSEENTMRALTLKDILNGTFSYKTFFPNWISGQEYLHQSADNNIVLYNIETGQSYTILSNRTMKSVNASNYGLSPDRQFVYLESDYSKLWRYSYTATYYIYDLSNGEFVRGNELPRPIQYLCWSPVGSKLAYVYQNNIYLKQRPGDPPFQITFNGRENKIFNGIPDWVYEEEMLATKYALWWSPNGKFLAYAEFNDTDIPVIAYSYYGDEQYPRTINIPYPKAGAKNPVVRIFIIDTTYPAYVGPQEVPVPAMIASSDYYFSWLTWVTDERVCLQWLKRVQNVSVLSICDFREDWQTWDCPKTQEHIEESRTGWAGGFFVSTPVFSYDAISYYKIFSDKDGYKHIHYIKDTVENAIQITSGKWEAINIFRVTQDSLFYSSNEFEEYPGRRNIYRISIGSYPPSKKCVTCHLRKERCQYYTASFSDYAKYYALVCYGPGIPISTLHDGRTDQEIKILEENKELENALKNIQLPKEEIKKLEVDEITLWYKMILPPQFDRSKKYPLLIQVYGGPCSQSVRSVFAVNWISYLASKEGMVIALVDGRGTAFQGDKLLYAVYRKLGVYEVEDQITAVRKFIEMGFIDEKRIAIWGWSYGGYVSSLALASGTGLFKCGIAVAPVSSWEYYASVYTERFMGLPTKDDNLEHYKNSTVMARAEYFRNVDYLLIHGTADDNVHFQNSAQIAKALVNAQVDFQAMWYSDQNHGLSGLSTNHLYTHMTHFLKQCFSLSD
Description: Binding of bispecific or monoclonal antibodies carrying the anti-FAPα arm derived from IgG1-FAPα-FERL (BisG1-FAPα-FERL/DR4-FERR, BisG1-FAPα-FERL/b12-FERR, and IgG1-FAPα-FERL) to cell surface expressed human FAPα was analyzed by flow cytometry using human lung fibroblasts and CAFs, which endogenously express FAPα. BisG1-b12-FERL/b12-FERR was used as negative control.
Human lung fibroblasts and CAFs (50,000 cells/well) were seeded in 96-Well round bottom plates (Greiner Bio-one, Cat #650101). Antibody dilutions were prepared using fluorescence-activated cell sorting (FACS) buffer, consisting of phosphate buffer saline (PBS, Lonza, Cat #BE17-517Q)+1% Bovine Serum Albumin (BSA, Roche, Cat #10735086001)+0.02% Sodium Azide (Bio-World, Cat #41920044-3). Plates were centrifuged, supernatant was removed, cells were resuspended in 50 μL of human Fc Block (BD, Cat #564220, diluted 1:100 in FACS buffer) and 50 μL of viability stain TO-PRO-3 Iodide (Thermo Fisher, Cat #T3605, diluted 1: 25,000 in FACS buffer), and incubated for 15 min at 4° C. Plates were washed three times with FACS buffer. Plates were centrifuged, supernatant was removed, cells were resuspended in 50 μL of antibody dilutions (concentration range 90-0.0005 μg/mL, three-fold dilution steps using FACS buffer) of BisG1-FAPα-FERL/DR4-FERR, BisG1-FAPα-FERL/b12-FERR, BisG1-b12-FERL/b12-FERR (top six concentrations only for CAFs culture) or IgG1-FAPα-FERL (top four concentrations only for CAFs culture) and incubated for 30 min at 4° C. Cells were washed three times with FACS buffer and resuspended in 50 μL of Fluorescein isothiocyanate (FITC)-labeled polyclonal antibody goat anti-mouse IgG1 (Jackson Immuno Research, Cat #109-096-097, diluted 1:100 in FACS buffer). […] Antibody binding to viable cells (TO-PRO-3 negative) was analyzed by flow cytometry on a FACSCelesta™ (BD biosciences) and data were processed using FlowJo_v10.8.1 (FlowJo LLC). Geomean fluorescence intensity, gMFI, was determined and visualized using GraphPad Prism.

[2] = target: T2, human DR4 (Death Receptor 4), cell surface expressed on human tumor cell lines (human, UniProt O00220 24-468); assay: flow cytometry, PANC-1 cells, average ± SEM
T2 construct: also called TNFRSF10A; TRAIL-R1
T2 sequence: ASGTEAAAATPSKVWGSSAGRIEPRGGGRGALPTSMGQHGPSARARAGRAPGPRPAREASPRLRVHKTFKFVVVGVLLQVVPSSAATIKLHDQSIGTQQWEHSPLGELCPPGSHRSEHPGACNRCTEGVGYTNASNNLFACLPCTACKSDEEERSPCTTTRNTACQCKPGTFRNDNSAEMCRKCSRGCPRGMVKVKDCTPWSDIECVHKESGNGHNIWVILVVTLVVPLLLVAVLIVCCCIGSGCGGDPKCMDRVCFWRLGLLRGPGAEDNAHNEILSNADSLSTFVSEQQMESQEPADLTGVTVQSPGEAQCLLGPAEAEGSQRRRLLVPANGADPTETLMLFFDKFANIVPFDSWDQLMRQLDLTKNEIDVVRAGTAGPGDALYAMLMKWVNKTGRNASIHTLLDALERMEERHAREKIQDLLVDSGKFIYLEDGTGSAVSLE

[3] = target: T2, human DR4 (Death Receptor 4), cell …; assay: flow cytometry, MDA-MB-231 cells, n = 1
[4] = target: T2, human DR4 (Death Receptor 4), cell …; assay: flow cytometry, HCT-116 cells, n = 3
[5] = target: T2, human DR4 (Death Receptor 4), cell …; assay: flow cytometry, MDA-MB-231 cells, N = 2
[6] = target: human DR4 with death domain deletion on ExpiCHO-S cells (human); assay: flow cytometry, ExpiCHO-S cells expressing human DR4, average ± SEM
Chain of human DR4 with death domain deletion on ExpiCHO-S cells (human) (chain, as listed by the source limits assumed, stated change not applied): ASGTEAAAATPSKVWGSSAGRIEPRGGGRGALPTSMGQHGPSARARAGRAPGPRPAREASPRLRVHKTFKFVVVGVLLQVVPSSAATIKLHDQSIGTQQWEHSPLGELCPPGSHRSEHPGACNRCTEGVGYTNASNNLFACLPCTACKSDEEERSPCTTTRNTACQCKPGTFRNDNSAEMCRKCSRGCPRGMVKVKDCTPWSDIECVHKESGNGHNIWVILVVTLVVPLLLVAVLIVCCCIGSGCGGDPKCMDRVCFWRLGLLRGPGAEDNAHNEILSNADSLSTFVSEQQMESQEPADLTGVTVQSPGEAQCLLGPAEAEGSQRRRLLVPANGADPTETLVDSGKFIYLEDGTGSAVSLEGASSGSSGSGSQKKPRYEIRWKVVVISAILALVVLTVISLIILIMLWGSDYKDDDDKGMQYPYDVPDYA

Binder	EC50 [1]	EC50 [2]	EC50 [3]	EC50 [4]	EC50 [5]	Max MFI (at 90 µg/mL) [5]	EC50 [6]
B1	0.016 µg/mL	–	–	–	–	–	–
B2	–	1.63 µg/mL	1.14 µg/mL	0.55 µg/mL	0.95 µg/mL	7840 MFI	–
B3	–	0.49 µg/mL	0.33 µg/mL	0.11 µg/mL	0.26 µg/mL	–	0.14 µg/mL
